Columns and labels:
[1] = tested on: hippocampal-derived neural stem cells; test: Immunoblotting of differentiation markers (NeuN, GAD65/67, vGAT) in differentiating neural progenitor cells; assay type: cell-based, rat
Description: To determine the optimal dose of MANF to promote the expression of differentiation markers in neural progenitor cells, immunoblotting experiments were performed using NeuN antibody that labels the nuclei of mature neurons, glutamic acid decarboxylase (GAD65/67) and vesicular […] (vGAT) that label GABAergic nerve cells.
Specifically, hippocampal-derived neural stem cells were isolated from the brain of E16 rat embryos. Hippocampal ridges were minced from the embryonic forebrains of E16 rats using sterile fine tweezers under a dissecting microscope. The tissues were collected, mechanically separated using a pipette in Ca^2+/Mg^2+-freeHBSS (Invitrogen) solution, and planted at 19,000 cells/cm^2 in 35 mm culture dishes precoated with 15 µg/ml poly-L-ornithine and 1 µg/ml fibronectin (Sigma). The cells were cultured under the condition of 5% CO2 for 3 days using a serum-free N2 medium (medium for proliferation) supplemented with 10 ng/mL basic fibroblast growth factor(bFGF, Invitrogen). Thereafter, the cells were removed using 0.05% trypsin/EDTA (ethylene-diamine-tetraacetic acid), and neural progenitor cells were planted on a 12 mm glass coverglass (Belco) for immunostaining and on a 100 mm dish for immunoblotting and cultured in N2 medium for proliferation containing bFGF for 1 day. Thereafter, in the proliferation condition, the medium continuously containing bFGF was treated with MANF at the indicated concentration and cultured for 2-3 days; and in the differentiation condition, MANF was added to the medium for differentiation not containing bFGF, which was cultured for 3-7 days. In the control group (vehicle), physiological saline was added in the same volume instead of MANF.
After 3-7 days of differentiation of the cultured neural stem cells, the medium was removed and washed once with PBS (Phosphate-buffered saline). Then, all the cells were lysed using a lysis buffer to which a protease inhibitor was added. The lysate was loaded in a 10% gel in the same volume, then transferred to a PVDF (Polyvinylidene Fluoride) membrane and blocked with 2% BSA in TBST or 5% skim milk in TBST at room temperature for 1 hour. As primary antibodies, rb-GAD65/67 (1:1000), mo-NeuN (1:1000), mo-Vgat (1:700), and mo-actin (1:2000) were used, and the primary antibodies were diluted with 2% BSA in TBST, reacted at 4° C. for 16 hours, and then washed with […]. As secondary antibodies, mo-HRP (1:5000) and rb-HRP (1:5000) were used, and the secondary antibodies were diluted in 2% skim milk in TBST or 2% BSA in TBST, reacted for 1 hour, and then developed on films. As control antibodies, mo-tubulin (Millipore, 05-661, 1:2000) and mo-actin (Santa cruz, SC-47778, 1:2000) were used.

[2] = tested on: primary neural progenitor cells; test: GAD-GFP reporter plasmid assay of GABAergic nerve cell differentiation; assay type: cell-based, rat; settings: MANF 30 ng/ml
Excerpt: In order to efficiently investigate the differentiation of the primary neural progenitor cells into GABAergic nerve cells by MANF, a plasmid (GAD-GFP) capable of easily and effectively observing and detecting the differentiation into the GABAergic nerve cells with the naked eye by recombining green fluorescent protein (GFP), a fluorescent protein, into the promoter region of the human GAD gene was used. When the activity of the promoter is increased, the differentiation into GABAergic nerve cells is promoted, and whether or not the activity of the promoter is increased can be monitored by the expression level of a reporter gene operably linked thereto. Accordingly, it can be seen that the differentiation into GABAergic nerve cells is promoted when the expression level of the reporter gene is increased. In addition, it is possible to easily observe the differentiation of GABAergic nerve cells using a transcription factor that binds to the promoter.
Specifically, on day 3 after culturing the primary neural progenitor cells, the cells were separated from the dish with 0.05% trypsin and subcultured, and then all groups were transfected with GAD-GFP DNA. The cells were seeded in a 24-well plate and cultured in N2 medium containing 10 ng/mL bFGF for 24 hours. N2 medium for differentiation without bFGF was treated with MANF at a concentration of 30 ng/ml, and after 3 and 5 days, it was fixed and stained.

[3] = MANF at 30 ng (tested 10-50 ng/ml), differentiation condition, vs vehicle

B1: MANF: one of 16 or more growth factors secreted into nerve stem cells by cerebrovascular cells; amino acid sequence of SEQ ID NO: 1 (protein)
chain: MRRMWATQGLAVALALSVLPGSRALRPGDCEVCISYLGRFYQDLKDRDVTFSPATIENELIKFCREARGKENRLCYYIGATDDAATKIINEVSKPLAHHIPVEKICEKLKKKDSQICELKYDKQIDLSTVDLKKLRVKELKKILDDWGETCKGCAEKSDYIRKINELMPKYAPKAASARTDL
modifications: MANF
NeuN protein increase (immunoblotting) [1, 3]: 1.6 fold
amount of GAD65/67 protein increase (immunoblotting) [1, 3]: about 2.5 fold
amount of vGAT protein increase (immunoblotting) [1, 3]: about 2.5 fold
optimal dose of MANF (NeuN, GAD65/67 and vGAT protein all increased the most) ([1]; tested 10-50 ng/ml): 30 ng/mL
number of NeuN-stained cells in MANF-treated group vs Con group ([2]; 3 and 5 days): no greater increase
GFP-positive cells (GAD promoter-GFP, GABAergic differentiation) ([2]; 3 and 5 days, vs Con group): increased compared to the Con group
number of NeuN-stained cells ([2]; after 3 days of differentiation): 10%
number of NeuN-stained cells ([2]; after 5 days of differentiation): 50%

Reference: patent US20230363418A1, “COMPOSITION FOR PREVENTING OR TREATING NEUROPSYCHOLOGIC DISEASE, COMPRISING MANF” (CEFO CO., LTD., priority 2020, published 2023)
